# Experimental data from US20230121197A1, “ANTIBODIES SPECIFICALLY BINDING THE CARBOXYMETHYLATED CATALYTIC SUBUNIT OF PROTEIN PHOSPHATASE 2A” (Medizinische Universität Wien, priority 2020, published 2023).
# B1: 7C10-C5: α-carboxymethylation specific mouse monoclonal IgG1 antibody from single clone hybridoma 7C10-C5 (DSM ACC3350) (antibody)
# heavy: MYRMQLLSCIALSLALVTNSDVQLQESGPGLVKPSQSLSLTCSVTGYSITSGYYWNWIRQFPGNKLEWMGYISYDGSNNYNPSLKNRISITRDTSKNQFFLKLNSVTTEDTATYYCAGRFAYWGQGTLVTVSAAKTTAPSVYPLAPVCGDTTGSSVTLGCLVKGYFPEPVTLTWNSGSLSSGVHTFPAVLQSDLYTLSSSVTVTSSTWPSQSITCNVAHPASSTKVDKKIEPRGPTIKPCPPCKCPAPNLLGGPSVFIFPPKIKDVLMISLSPIVTCVVVDVSEDDPDVQISWFVNNVEVHTAQTQTHREDYNSTLRVVSALPIQHQDWMSGKEFKCKVNNKDLPAPIERTISKPKGSVRAPQVYVLPPPEEEMTKKQVTLTCMVTDFMPEDIYVEWTNNGKTELNYKNTEPVLDSDGSYFMYSKLRVEKKNWVERNSYSCSVVHEGLHNHHTTKSFSRTPGK
# light: MDMRVPAQLLGLLLLWLSGARCDVLMTQTPLSLPVSLGDQASISCRSSQSIVHSNGNTYLEWYLQKPGQSPKLLIYKVSNRFSGVPDRFSGSGSGTDFTLKINRVEAEDLGVYYCFQGSHVPWTFGGGTKLEIKADAAPTVSIFPPSSEQLTSGGASVVCFLNNFYPKDINVKWKIDGSERQNGVLNSWTDQDSKDSTYSMSSTLTLTKDEYERHNSYTCEATHKTSTSPIVKSFNRNEC
# modifications: Amino acid sequence of the recombinant 7C10-C5 heavy chain; Amino acid sequence of the recombinant 7C10-C5 light chain
# B2: 7C10-C5 monoclonal antibody (antibody, V domains shown)
# VH: DVQLQESGPGLVKPSQSLSLTCSVTGYSITSGYYWNWIRQFPGNKLEWMGYISYDGSNNYNPSLKNRISITRDTSKNQFFLKLNSVTTEDTATYYCAGRFAYWGQGTLVTVSA
# VL: DVLMTQTPLSLPVSLGDQASISCRSSQSIVHSNGNTYLEWYLQKPGQSPKLLIYKVSNRFSGVPDRFSGSGSGTDFTLKINRVEAEDLGVYYCFQGSHVPWTFGGGTKLEIK
# notes: Used as hybridoma culture supernatant (ELISA, Western blot, IHC) or at 50 µg/mL (SPR); also called 7C10 X63; clone 7C10-C5
# Target: T1, HA-tagged yeast PP2Ac (PPH21) (Saccharomyces cerevisiae, UniProt P23594)
# T1 construct: expressed in transfected cells; host or cells: yeast BY4741 (wildtype, ppe1Δ, ppm1Δ)
# Test: Western blot of yeast BY4741 strain lysates (wt, ppe1Δ, ppm1Δ, NaOH)
# Type: binding
# Source text: Yeast strain BY4741 expressing HA-tagged yeast PP2Ac (PPH21) was used as a background. Of note, the 6 C-terminal amino acids of mammalian/human PP2Ac are identical to the yeast PP2A catalytic subunit PPH21. The BY4741 wildtype (WT) strain contained carboxymethylated PP2Ac and non-carboxymethylated PP2Ac. The BY4741 ppe1Δ strain contained high levels of carboxymethylated PP2Ac because the ppe1 gene was deleted. The BY4741 ppm1Δ strain lacked carboxymethylated PP2Ac because the ppm1 gene was deleted. Said yeast strains were further used for the characterization of monoclonal antibodies, i.e. 7C10-C5, as described further below. […]
# Yeast cells were grown at 30° C. to exponential growth phase in drop-out complete medium (2.3 g/l Bacto yeast nitrogen base [Difco, 233520], 20 mg/l adenine, 20 mg/l L-arginine, 15 mg/l L-tyrosine, 15 mg/l L-isoleucine, 25 mg/l L-phenylalanine, 50 mg/l L-glutamic acid, 50 mg/l L-aspartic acid, 100 mg/l L-threonine, 200 mg/l L-serine, 75 mg/l L-valine, 75 mg/l L-methionine, 90 mg/l L-lysine, 20 mg/l uracil, 30 mg/l L-histidine, 0.05 M ammoniumsulfate) lacking L-leucine and containing 2% w/v glucose. Yeast cells were collected by centrifugation at 3,500 rpm at 4° C. in a Beckmann GS-6R centrifuge, washed with ice-cold water and the optical density at 600 nm (0D^600) was measured in a Hitachi U-2000 spectrophotometer. […]
# T1 sequence (P23594 whole entry): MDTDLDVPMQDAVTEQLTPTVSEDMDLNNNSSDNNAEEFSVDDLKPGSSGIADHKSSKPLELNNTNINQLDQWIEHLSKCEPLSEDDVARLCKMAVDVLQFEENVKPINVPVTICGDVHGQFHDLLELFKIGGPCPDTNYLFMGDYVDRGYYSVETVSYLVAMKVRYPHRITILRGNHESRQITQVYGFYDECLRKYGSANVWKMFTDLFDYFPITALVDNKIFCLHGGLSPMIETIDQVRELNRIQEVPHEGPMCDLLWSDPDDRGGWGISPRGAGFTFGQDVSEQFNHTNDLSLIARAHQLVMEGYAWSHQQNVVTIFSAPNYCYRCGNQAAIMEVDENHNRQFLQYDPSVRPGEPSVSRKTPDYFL
row,Molecule,detection of PP2Ac in ppe1Δ (carboxymethylated) versus ppm1Δ / NaOH treated (non-carboxymethylated) lysates
1,B1,only detected carboxymethylated PP2Ac
2,B2,detected PP2Ac only in the BY4741 ppe1Δ strain
